Tests used:
[1] = Heparin binding assay (salt elution from heparin-Sepharose/agarose)
HUVE cells = experiment: HUVE cell adhesion to hCyr61-coated plates; format: cell-based, human; conditions: serum-free conditions
Protocol: Immunological plates (96-well ProBind assay plates, Falcon) were coated with 0.1-30 μg/ml hCyr61, fibronectin (Gibco BRL) or vitronectin (Gibco BRL) in phosphate-buffered saline (PBS) containing 0.1% protease-free BSA (Sigma) for 16 hrs at 4° C. The wells were blocked with 1% BSA in PBS for 1 hr at room temperature and washed with PBS. […] In some experiments, fbs was added to 5-10%. Also, in experiments involving vitronectin-coateci plates, endogenous vitronectin was removed from fbs by immunoaffinity chromatography using bovine polyclonal anti-vitronectin antibodies (Gibco). Norris et al., J. Cell Sci. 95:255-262 (1990). Cells were plated at 10^4 cells/well. After 2 hours, cells were fixed with 4% paraformaldehyde, stained with methylene blue and quantified as described. Oliver et al., J. Cell Sci. 92:513-518 (1989).
The ability of HUVE cells to adhere to hCyr61-coated plates in the presence of mock-immunodepleted fbs and serum immunodepleted with anti-bovine vitronectin antibodies were compared. […] The addition of vitronectin (30 μg/ml) to vitronectin-immunodepleted serum restored the ability of HUVE cells to adhere and spread on hCyr61-coated plates to the same level observed when whole serum was used in the cell attachment assay. […]
Additionally, HUVE cell attachment and spreading in the presence of an increasing quantity of vitronectin was examined. […]

[2] = tested on: 1064SK human skin fibroblasts; experiment: Human skin fibroblast migration; format: cell-based; conditions: 1064SK cells

B1: human Cyr61: Human Cyr61, 381 amino acids, SEQ ID NO:4, expressed in the baculovirus system (protein, listed as Homo sapiens)
chain: MSSRIARALALVVTLLHLTRLALSTCPAACHCPLEAPKCAPGVGLVRDGCGCCKVCAKQLNEDCSKTQPCDHTKGLECNFGASSTALKGICRAQSEGRPCEYNSRIYQNGESFQPNCQHQCTCIDGAVGCIPLCPQELSLPNLGCPNPRLVKVTGQCCEEWVCDEDSIKDPMEDQDGLLGKELGFDASEVELTRNNELIAVGKGRSLKRLPVFGMEPRILYNPLQGQKCIVQTTSWSQCSKTCGTGISTRVTNDNPECRLVKETRICEVRPCGQPVYSSLKKGKKCSKTKKSPEPVRFTYAGCLSVKKYRPKYCGSCVDGRCCTPQLTRTVKMRFRCEDGETFSKNVMMIQSCKCNYNCPHANEAAFPFYRLFNDIHKFRD
For B1, the “heparin binding” value [1] was “quantitatively bound to heparin-agarose”, the “HUVE cell attachment and spreading” value (HUVE cells) was “mediated cell attachment but not spreading” and the “migration of human fibroblasts” value [2] was “induced migration of the human fibroblast cells”.

Reference: patent US7521540B2, “CYR61 compositions and methods” (Munin Corporation, priority 1996, dated 2009)
